Results taken from patent US20210230266A1.
Where two headings read alike, the source gives them in different places.

Columns and labels:
Test in all cases: cell-based or functional assay
[1] = molecular target: IL-11:IL-11Rα fusion protein (hyper IL-11) (human)
[2] = molecular target: Mouse IL-11 (mouse) (UniProt P47873)
[3] = molecular target: Human IL-11 (human) (UniProt P20809)
[4] = molecular target: Mouse IL-11 (mouse) (UniProt P47873); remark: listed apart in the source

Human IL-11 (human), sequence (P20809 22-199 limits assumed): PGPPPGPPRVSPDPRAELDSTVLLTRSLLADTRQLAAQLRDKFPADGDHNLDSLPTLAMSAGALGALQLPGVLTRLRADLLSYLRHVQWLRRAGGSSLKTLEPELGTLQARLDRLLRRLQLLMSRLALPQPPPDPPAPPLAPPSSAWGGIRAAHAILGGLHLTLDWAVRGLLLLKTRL
Mouse IL-11 (mouse), sequence (P47873 22-199 limits assumed): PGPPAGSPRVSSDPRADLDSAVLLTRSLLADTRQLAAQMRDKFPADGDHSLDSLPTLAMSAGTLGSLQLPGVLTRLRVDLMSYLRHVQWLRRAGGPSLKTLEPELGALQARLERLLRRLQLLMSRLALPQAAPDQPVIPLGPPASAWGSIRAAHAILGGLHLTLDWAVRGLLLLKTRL
IL-11:IL-11Rα fusion protein (hyper IL-11) (human), sequence (chain, as listed by the source limits assumed): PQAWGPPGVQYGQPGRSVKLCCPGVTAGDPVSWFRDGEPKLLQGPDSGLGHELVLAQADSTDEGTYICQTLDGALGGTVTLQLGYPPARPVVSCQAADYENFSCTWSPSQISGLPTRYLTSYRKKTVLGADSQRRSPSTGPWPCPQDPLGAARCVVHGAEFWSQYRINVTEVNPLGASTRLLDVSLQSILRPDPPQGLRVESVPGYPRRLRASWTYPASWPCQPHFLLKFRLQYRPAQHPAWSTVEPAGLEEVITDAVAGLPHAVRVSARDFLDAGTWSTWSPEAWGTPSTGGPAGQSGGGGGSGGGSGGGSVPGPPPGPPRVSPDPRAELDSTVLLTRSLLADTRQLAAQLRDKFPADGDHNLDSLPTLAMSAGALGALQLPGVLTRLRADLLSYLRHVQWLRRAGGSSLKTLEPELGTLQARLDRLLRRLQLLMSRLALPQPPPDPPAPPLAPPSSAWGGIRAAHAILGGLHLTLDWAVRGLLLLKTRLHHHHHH

fold of αSMA-positive cells relative to unstimulated cells, human atrial fibroblasts + hyper IL-11 (fold of unstimulated) [1]: 1.28
percentage of activated (αSMA-positive) fibroblasts, human atrial fibroblasts + hyper IL-11 [1]: 33.8%
fold of αSMA-positive cells relative to unstimulated cells, mouse atrial fibroblasts + TGFβ1 (fold of unstimulated) [2]: 1.24
percentage of activated (αSMA-positive) fibroblasts, mouse atrial fibroblasts + TGFβ1 [2]: 39.4%
fold of αSMA-positive cells relative to unstimulated cells, human atrial fibroblasts + TGFβ1 [3]: 0.89 times
fold of αSMA-positive cells relative to unstimulated cells, human atrial fibroblasts + TGFβ1 (fold of unstimulated) [3]: 0.99
percentage of activated (αSMA-positive) fibroblasts, human atrial fibroblasts + TGFβ1 [3]: 28.3%
fold of αSMA-positive cells relative to unstimulated cells, mouse atrial fibroblasts + TGFβ1 (fold of unstimulated) [4]: 1.44
percentage of activated (αSMA-positive) fibroblasts, mouse atrial fibroblasts + TGFβ1 [4]: 43%
Substance: Monoclonal mouse anti-human IL-11 antibody, IgG2A, Clone #22626, Catalog No. MAB218 (R&D Systems)
